Reference: patent publication US20180346602A1
Where a chain is given by its changes, count along the chain named.

B1: anti-AAA variant Fc-region antibody M1.6.22 (antibody, V domains shown)
VH: EVQLVESGGDLVKPGGSLKLSCAASGFTFSSYGMSWVRQTPDKRLEWVATISSGGSYIYYPDSVKGRFTISRDNAKNTLYLQMSSLKSEDTAMYYCARLGMITTGYAMDYWGQGTSVTVSS
VL: DVLMTQTPLSLPVSLGDQASISCRSSQTIVHSTGHTYLEWFLQKPGQSPKLLIYKVSNRFSGVPDRFSGSGSGTDFTLKISRVEAEDLGVYYCFQGSHVPYTFGGGTKLEIK
B2: anti-variant (human) Fc-region antibody M1.3.17 (antibody, V domains shown)
VH: EVKLLESGGGLVQPGGSLKLSCAASGIDFRRYWMNWVRQAPGKGLEWIGEIDPDSSTINYTPSLKDKFIISRDNAKNTMYLQMRKVRSEDTALYYCARPYDYGAWFAYWGQGTLVTVSA
VL: QAVVTQESALTTSPGETVTLTCRSTTGAVTTSNYANWVQEKPDHLFTGLIGGTNKRAPGVPARFSGSLIGDKAALTITGAQTEDEAIYFCALWYSDHWVFGGGTKLTVL
B3: anti-variant (human) Fc-region antibody M1.7.24 (antibody, V domains shown)
VH: B2 VH with I27F, R30S, D52T, M79L, R84I, A97V, Y108S
VL: B2 VL with T25S, D96N

Each binder was assayed against anti-P-Selectin antibody (IgG4 subclass with mutations S228P/L235E) (human) [IgG part: P01861] (assay: sandwich ELISA assay C; capture on SA plate; tracer FcγRI-Dig; analyte 6 ng/mL).

| Binder | signal [OD405 nm] |
| --- | --- |
| B1 | 0.051 |
| B2 | 1.18 |
| B3 | 0.053 |

These binders were tested against anti-VEGF/ANG2 antibody (IgG1 subclass with mutations P329G/L234A/L235A/I253A/H310A/H435A) (human) [IgG part: P01857] in the same assay as above.

| Binder | signal [OD405 nm] |
| --- | --- |
| B1 | 0.06 |
| B2 | 1.17 |
| B3 | 0.079 |

These binders were tested against anti-VEGF/ANG2 antibody (IgG1 subclass with mutations P329G/L234A/L235A) (human) [IgG part: P01857] in the same assay as above.

| Binder | signal [OD405 nm] |
| --- | --- |
| B1 | 0.06 |
| B2 | 1.22 |
| B3 | 0.06 |

What follows are binders tested against anti-IGF-1R antibody (IgG1 subclass with mutations I253A/H310A/H435A) (human) [IgG part: P01857] in the same assay as above.

| Binder | signal [OD405 nm] |
| --- | --- |
| B1 | 0.104 |
| B2 | 1.21 |
| B3 | 0.069 |

What follows are binders tested against anti-P-Selectin antibody (IgG4 subclass with mutations S228P/L235E) (human) [IgG part: P01861] (assay: sandwich ELISA assay C; capture on SA plate; tracer FcγRI-Dig; analyte 2 ng/mL).

| Binder | signal [OD405 nm] |
| --- | --- |
| B1 | 0.067 |
| B2 | 1.19 |
| B3 | 0.056 |

These binders were tested against anti-VEGF/ANG2 antibody (IgG1 subclass with mutations P329G/L234A/L235A/I253A/H310A/H435A) (human) [IgG part: P01857] in the same assay as above.

| Binder | signal [OD405 nm] |
| --- | --- |
| B1 | 0.077 |
| B2 | 1.17 |
| B3 | 0.085 |

The binders below were run against anti-VEGF/ANG2 antibody (IgG1 subclass with mutations P329G/L234A/L235A) (human) [IgG part: P01857] in the same assay as above.

| Binder | signal [OD405 nm] |
| --- | --- |
| B1 | 0.072 |
| B2 | 1.22 |
| B3 | 0.093 |

What follows are binders tested against anti-IGF-1R antibody (IgG1 subclass with mutations I253A/H310A/H435A) (human) [IgG part: P01857] in the same assay as above.

| Binder | signal [OD405 nm] |
| --- | --- |
| B1 | 0.082 |
| B2 | 1.26 |
| B3 | 0.074 |

What follows are binders tested against anti-P-Selectin antibody (IgG4 subclass with mutations S228P/L235E) (human) [IgG part: P01861] (assay: sandwich ELISA assay B; capture on SA plate; tracer M1.7.10-Dig; analyte 100 ng/mL).

| Binder | signal [OD405 nm] |
| --- | --- |
| B1 | 0.051 |
| B2 | 0.048 |
| B3 | 0.05 |

The binders below were run against anti-VEGF/ANG2 antibody (IgG1 subclass with mutations P329G/L234A/L235A/I253A/H310A/H435A) (human) [IgG part: P01857] in the same assay as above.

| Binder | signal [OD405 nm] |
| --- | --- |
| B1 | 0.052 |
| B2 | 0.035 |
| B3 | 0.057 |

The binders below were run against anti-VEGF/ANG2 antibody (IgG1 subclass with mutations P329G/L234A/L235A) (human) [IgG part: P01857] in the same assay as above.

| Binder | signal [OD405 nm] |
| --- | --- |
| B1 | 0.21 |
| B2 | 0.216 |
| B3 | 3.23 |

What follows are binders tested against anti-IGF-1R antibody (IgG1 subclass with mutations I253A/H310A/H435A) (human) [IgG part: P01857] in the same assay as above.

| Binder | signal [OD405 nm] |
| --- | --- |
| B1 | 2.9 |
| B2 | 0.05 |
| B3 | 0.098 |

Each binder was assayed against anti-IGF-1R antibody (IgG1 subclass with mutations I253A/H310A/H435A) [IgG part: P01857] (assay: sandwich ELISA assay A; capture M1.7.10-Bi; antibody 3 at 25 ng/mL).

| Binder | signal [OD405 nm] |
| --- | --- |
| B1 | 2.51 |
| B2 | 0.043 |
| B3 | 0.047 |

These binders were tested against anti-VEGF/ANG2 antibody (IgG1 subclass with mutations P329G/L234A/L235A/I253A/H310A/H435A) [IgG part: P01857] (assay: sandwich ELISA assay A; capture M1.7.10-Bi; antibody 1 at 50 ng/mL).

| Binder | signal [OD405 nm] |
| --- | --- |
| B1 | 0.06 |
| B2 | 0.043 |
| B3 | 0.051 |

The binders below were run against anti-IGF-1R antibody (IgG1 subclass with mutations I253A/H310A/H435A) [IgG part: P01857] (assay: sandwich ELISA assay A; capture M1.7.10-Bi; antibody 3 at 100 ng/mL).

| Binder | signal [OD405 nm] |
| --- | --- |
| B1 | 2.89 |
| B2 | 0.047 |
| B3 | 0.06 |

What follows are binders tested against anti-P-Selectin antibody (IgG4 subclass with mutations S228P/L235E) (human) [IgG part: P01861] (assay: sandwich ELISA assay C; capture on SA plate; tracer FcγRI-Dig; analyte 50 ng/mL).

| Binder | signal [OD405 nm] |
| --- | --- |
| B1 | 0.054 |
| B2 | 1.15 |
| B3 | 0.066 |

These binders were tested against anti-VEGF/ANG2 antibody (IgG1 subclass with mutations P329G/L234A/L235A/I253A/H310A/H435A) (human) [IgG part: P01857] in the same assay as above.

| Binder | signal [OD405 nm] |
| --- | --- |
| B1 | 0.077 |
| B2 | 1.17 |
| B3 | 0.084 |

These binders were tested against anti-VEGF/ANG2 antibody (IgG1 subclass with mutations P329G/L234A/L235A) (human) [IgG part: P01857] in the same assay as above.

| Binder | signal [OD405 nm] |
| --- | --- |
| B1 | 0.057 |
| B2 | 1.21 |
| B3 | 0.094 |

These binders were tested against anti-IGF-1R antibody (IgG1 subclass with mutations I253A/H310A/H435A) (human) [IgG part: P01857] in the same assay as above.

| Binder | signal [OD405 nm] |
| --- | --- |
| B1 | 1.06 |
| B2 | 1.21 |
| B3 | 0.095 |

The binders below were run against anti-VEGF/ANG2 antibody (IgG1 subclass with mutations P329G/L234A/L235A) [IgG part: P01857] (assay: sandwich ELISA assay A; capture M1.7.10-Bi; antibody 2 at 6 ng/mL).

| Binder | signal [OD405 nm] |
| --- | --- |
| B1 | 0.044 |
| B2 | 1.99 |
| B3 | 2.24 |

Each binder was assayed against anti-VEGF/ANG2 antibody (IgG1 subclass with mutations P329G/L234A/L235A) [IgG part: P01857] (assay: sandwich ELISA assay A; capture M1.7.10-Bi; antibody 2 at 3 ng/mL).

| Binder | signal [OD405 nm] |
| --- | --- |
| B1 | 0.039 |
| B2 | 1.22 |
| B3 | 1.73 |

What follows are binders tested against anti-IGF-1R antibody (IgG1 subclass with mutations I253A/H310A/H435A) [IgG part: P01857] (assay: sandwich ELISA assay A; capture M1.7.10-Bi; antibody 3 at 3 ng/mL).

| Binder | signal [OD405 nm] |
| --- | --- |
| B1 | 0.414 |
| B2 | 0.036 |
| B3 | 0.045 |

These binders were tested against anti-P-Selectin antibody (IgG4 subclass with mutations S228P/L235E) [IgG part: P01861] (assay: sandwich ELISA assay A; capture M1.7.10-Bi; antibody 4 at 0 ng/mL (blank)).

| Binder | signal [OD405 nm] |
| --- | --- |
| B1 | 0.043 |
| B2 | 0.036 |
| B3 | 0.045 |

What follows are binders tested against anti-VEGF/ANG2 antibody (IgG1 subclass with mutations P329G/L234A/L235A/I253A/H310A/H435A) [IgG part: P01857] (assay: sandwich ELISA assay A; capture M1.7.10-Bi; antibody 1 at 6 ng/mL).

| Binder | signal [OD405 nm] |
| --- | --- |
| B1 | 0.057 |
| B2 | 0.042 |
| B3 | 0.045 |

Each binder was assayed against anti-VEGF/ANG2 antibody (IgG1 subclass with mutations P329G/L234A/L235A) [IgG part: P01857] (assay: sandwich ELISA assay A; capture M1.7.10-Bi; antibody 2 at 100 ng/mL).

| Binder | signal [OD405 nm] |
| --- | --- |
| B1 | 0.076 |
| B2 | 3.04 |
| B3 | 2.65 |
